This data set in a line: self-splicing fitness, log relative to wild type (ln ratio); higher = more splicing; Tetrahymena group I intron in knt gene, E. coli kanamycin selection, DiMSum; sequences stand for … in CUCUCU…GGAGGGAAAAGUUAUCAGGCAUGCACCUGGUAGCUAGUCUUUAAACCAAUAGAUUGCAUCGGUUUAAAAGGCAAGACCGUCAAAUUGCGGGAAAGGGGUCAACAGCCGUUCAGUACCAAGUCUCAGGGGAAACUUUGAGAUGGCCUUGCAAAGGGUAUGGUAAUAAGCUGACGGACAUGGUCCUAACCACGCAGCCAAGUCCUAAGUCAACAGAUCUUCUGUUGAUAUGGAUGCAGUUCACAGACUAAAUGUCGGUCGGGGAAGAUGUAUUCUUCUCAUAAGAUAUAGUCGGACCUCUCCUUAAUGGGAGCUAGCGGAUGAAGUGAUGCAACACUGGAGCCGCUGGGAACUAAUUUGUAUGCGAAAGUAUAUUGAUUAGUUUUGGAGUACUCGUGGUCG
In outline: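 A randomised library covering all eight P1ex-region intron nucleotides was built with the intron in the knt kanamycin-resistance gene on pET-22b(+) and held in E. coli BL21(DE3). Cells were grown overnight at 37°C or 30°C on LB agar, with or without 25 μg/mL kanamycin, plus 100 μg/mL carbenicillin, 50 μM IPTG and 0.2% rhamnose, and pooled colonies were amplicon-sequenced on an Illumina HiSeq 2500. DiMSum fitness is the error-weighted combination of wild-type-normalised replicate fold changes, kanamycin versus none.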

± gives the uncertainty stated by the source.

The values that follow come from the supplement of paper PMC7877785.

On to CAAGAGCAAUAUUACGACUU, for which the “self-splicing fitness (ln)” value is, setting by setting: (30 °C) -2.96 ± 0.12; (37 °C) -1.46 ± 0.12.
On the same counts, the results for AUUUAGCAAUAUUACGCGUA are -1.36 ± 0.12 and -1 ± 0.14.
On the same counts, the results for GUGCAGCAAUAUUACGAUCU are -0.791 ± 0.052 and -0.194 ± 0.062.
On the same counts, the results for GGAAAGCAAUAUUACGUGUA are -1.92 ± 0.096 and -1.8 ± 0.13.
Consider UCUCAGCAAUAUUACGCGUU, for which the “self-splicing fitness (ln)” value (30 °C) was -2.55 ± 0.14 and the “self-splicing fitness (ln)” value (37 °C) is -1.55 ± 0.17.
UAAUAGCAAUAUUACGCAUC: for the setting “30 °C”, the “self-splicing fitness (ln)” value is -2.08 ± 0.49.
As for GGUUAGCAAUAUUACGUUUG, the “self-splicing fitness (ln)” value by setting is: (30 °C) -4.51 ± 0.34; (37 °C) -1.42 ± 0.17.
As for GUGCAGCAAUAUUACGCAGA, the “self-splicing fitness (ln)” value reads like this: (30 °C) -2.57 ± 0.46; (37 °C) -1.53 ± 0.23.
For the sequence GGCCAGCAAUAUUACGUUUC, the “self-splicing fitness (ln)” value (30 °C) was -1.4 ± 0.095 and the “self-splicing fitness (ln)” value (37 °C) was -0.362 ± 0.089.
On the same counts, the results for GCGCAGCAAUAUUACGGUUU are -0.323 ± 0.048 and -0.167 ± 0.057.
On the same counts, the results for CAAUAGCAAUAUUACGCCUG are -0.752 ± 0.075 and 0.366 ± 0.088.
On the same counts, the results for UAGCAGCAAUAUUACGCAGC are -2.6 ± 0.22 and -1.75 ± 0.19.
In the case of GCGCAGCAAUAUUACGUCGA, the “self-splicing fitness (ln)” value is -0.665 ± 0.09 (30 °C) and 0.801 ± 0.13 (37 °C).
On the same counts, the results for UUCAAGCAAUAUUACGGAUC are -1.5 ± 0.25 and -2.84 ± 0.21.
ACCGAGCAAUAUUACGACGU: the “self-splicing fitness (ln)” value reads like this: (30 °C) -2.04 ± 0.1; (37 °C) -0.637 ± 0.11.
On the same counts, the results for UACUAGCAAUAUUACGCUCU are -0.792 ± 0.085 and -0.262 ± 0.1.
On the same counts, the results for UCGGAGCAAUAUUACGGCAU are -2.73 ± 0.21 and -1.97 ± 0.37.
On to CCUAAGCAAUAUUACGCUAC, for which the “self-splicing fitness (ln)” value (37 °C) was -1.53 ± 0.31.
For AAAAAGCAAUAUUACGAGAC, the “self-splicing fitness (ln)” value by setting is: (30 °C) -3.02 ± 0.19; (37 °C) -2.47 ± 0.24.
On the same counts, the results for CGCUAGCAAUAUUACGAGCA are -0.28 ± 0.098 and 0.344 ± 0.12.
On the same counts, the results for GAUUAGCAAUAUUACGGUAG are -2.5 ± 0.15 and -1.21 ± 0.12.
On the same counts, the results for GGUUAGCAAUAUUACGCGUU are -1.01 ± 0.17 and -0.358 ± 0.19.
For CUACAGCAAUAUUACGUGGU, the “self-splicing fitness (ln)” value reads like this: (30 °C) -3.31 ± 0.22; (37 °C) -3.03 ± 0.28.
On the same counts, the results for CGGCAGCAAUAUUACGUUUG are -1.58 ± 0.069 and -0.243 ± 0.079.
On the same counts, the results for UCCGAGCAAUAUUACGUCUA are -3.11 ± 0.23 and -3 ± 0.24.
On the same counts, the results for CAUGAGCAAUAUUACGACGG are -0.356 ± 0.12 and -0.199 ± 0.17.
Consider GCGUAGCAAUAUUACGAUAA, for which the “self-splicing fitness (ln)” value (30 °C) was -0.962 ± 0.21 and the “self-splicing fitness (ln)” value (37 °C) was -0.707 ± 0.24.
In the case of AAGGAGCAAUAUUACGGCAA, the “self-splicing fitness (ln)” value (30 °C) was -2.54 ± 0.39.
ACUUAGCAAUAUUACGAGGU: the “self-splicing fitness (ln)” value was -3.47 ± 0.22 (30 °C) and -1.96 ± 0.21 (37 °C).
On the same counts, the results for AGCAAGCAAUAUUACGCUAA are -2.93 ± 0.2 and -1.69 ± 0.16.
As for GUAUAGCAAUAUUACGGUAC, the “self-splicing fitness (ln)” value (37 °C) is -2.25 ± 0.33.
With UAAUAGCAAUAUUACGCUUA, the “self-splicing fitness (ln)” value runs as follows: (30 °C) -1.32 ± 0.25; (37 °C) -0.932 ± 0.15.
On the same counts, the results for UAAUAGCAAUAUUACGCCGG are -1.23 ± 0.17 and -1.05 ± 0.33.
On the same counts, the results for CUGGAGCAAUAUUACGUAUG are -1.78 ± 0.12 and -0.437 ± 0.14.
On to CAGUAGCAAUAUUACGCAUG, for which the “self-splicing fitness (ln)” value reads like this: (30 °C) -2.31 ± 0.2; (37 °C) -2.46 ± 0.29.
On the same counts, the results for GGUCAGCAAUAUUACGUGUC are -0.998 ± 0.12 and -0.0483 ± 0.13.
As to AGCGAGCAAUAUUACGGUUC, the “self-splicing fitness (ln)” value (30 °C) was -2.18 ± 0.24 and the “self-splicing fitness (ln)” value (37 °C) was -2.32 ± 0.3.
On the same counts, the results for GUUUAGCAAUAUUACGGACA are -1.68 ± 0.25 and -1.44 ± 0.25.
On the same counts, the results for AUGGAGCAAUAUUACGAGGC are -3.37 ± 0.34 and -2.44 ± 0.23.
On the same counts, the results for UUCCAGCAAUAUUACGGACG are -0.4 ± 0.048 and 0.421 ± 0.077.
AACGAGCAAUAUUACGUGUC: the “self-splicing fitness (ln)” value runs as follows: (30 °C) -2.08 ± 0.11; (37 °C) -2.17 ± 0.23.
On the same counts, the results for UUUGAGCAAUAUUACGUAUG are -1.73 ± 0.16 and -2.59 ± 0.24.
On the same counts, the results for GCCCAGCAAUAUUACGCCCC are -1.48 ± 0.15 and -0.245 ± 0.22.
Consider AAACAGCAAUAUUACGGCGA, for which the “self-splicing fitness (ln)” value is -0.923 ± 0.074 (30 °C) and -0.737 ± 0.085 (37 °C).
Regarding ACUUAGCAAUAUUACGCCAU, the “self-splicing fitness (ln)” value runs as follows: (30 °C) -2.99 ± 0.35; (37 °C) -2.52 ± 0.38.
Regarding GUCAAGCAAUAUUACGCGCU, the “self-splicing fitness (ln)” value by setting is: (30 °C) -1.88 ± 0.092; (37 °C) -0.425 ± 0.087.
On the same counts, the results for AACCAGCAAUAUUACGCGCC are -0.668 ± 0.1 and -0.521 ± 0.12.
On the same counts, the results for UGUUAGCAAUAUUACGAAAG are -2.64 ± 0.14 and -2.73 ± 0.25.
On to CUUCAGCAAUAUUACGACGG, for which the “self-splicing fitness (ln)” value (30 °C) is -2.16 ± 0.13 and the “self-splicing fitness (ln)” value (37 °C) was -0.57 ± 0.23.
As to GUAAAGCAAUAUUACGACAC, the “self-splicing fitness (ln)” value was determined as 0.603 ± 0.098 (30 °C) and 0.696 ± 0.12 (37 °C).
On the same counts, the results for ACGGAGCAAUAUUACGAUCA are -2.77 ± 0.37 and -1.53 ± 0.24.
On the same counts, the results for AGUUAGCAAUAUUACGUACC are -0.585 ± 0.24 and -0.376 ± 0.28.
CGAGAGCAAUAUUACGAUGU: the “self-splicing fitness (ln)” value was -3.97 ± 0.25 (30 °C) and -1.83 ± 0.19 (37 °C).
For the sequence AGCGAGCAAUAUUACGCGUU, the “self-splicing fitness (ln)” value (30 °C) is -3.19 ± 0.27 and the “self-splicing fitness (ln)” value (37 °C) was -2.79 ± 0.32.
Consider AGCGAGCAAUAUUACGACAC, for which, under “30 °C”, the “self-splicing fitness (ln)” value was -1.34 ± 0.34.
Regarding AUUUAGCAAUAUUACGGGAA, the “self-splicing fitness (ln)” value reads like this: (30 °C) -2.24 ± 0.26; (37 °C) -1.84 ± 0.19.
Consider CUUGAGCAAUAUUACGUAUU, for which the “self-splicing fitness (ln)” value (37 °C) was -3.02 ± 0.37.
For AGGAAGCAAUAUUACGGUCA, the “self-splicing fitness (ln)” value is -0.983 ± 0.086 (30 °C) and 0.202 ± 0.091 (37 °C).
As for AUCAAGCAAUAUUACGCUUC, the “self-splicing fitness (ln)” value (37 °C) is -2.01 ± 0.46.
For the sequence UGAAAGCAAUAUUACGCCAG, the “self-splicing fitness (ln)” value runs as follows: (30 °C) -0.985 ± 0.12; (37 °C) -0.807 ± 0.12.
On the same counts, the results for CAUCAGCAAUAUUACGUGAG are -0.345 ± 0.055 and -0.244 ± 0.073.
On the same counts, the results for GGACAGCAAUAUUACGUCCG are -2.1 ± 0.12 and -1.89 ± 0.18.
